Assay results: the nanobody polyreactivity screen of Harvey et al. (2022)

Assay: yeast display, Sf9 membrane polyspecificity reagent, FACS + sequencing; frameworks hold sequencing errors
Method in brief: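 Galactose-induced (36–48 hours) yeast carrying a synthetic nanobody display library were exposed to 10% biotinylated, detergent-solubilized Sf9 membrane reagent at 4 °C for 1 hour. FACS followed streptavidin microbead enrichment, using low and high (top ~1%) gates for expression (anti-HA) and reagent binding (streptavidin). Colony PCR, MiSeq 2 × 250 sequencing and CDR-length filtering followed. Labels for polyreactivity reflect the gate of origin.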

Sequence	polyreactivity (PSR sort gate)
QVQLVESGGGLVQAGGSLRLSCAASGLTFSNYAMGWYRQAPGKERELVAAISASGGSTYYADSVKGRFTISRDNAKNTVYLQMNSLKPEDTAVYYCAAATTRPVYPANDDYWGQGTQVTVSS	low polyreactivity
QVQLVESGGGLVQAGGSLRLSCAASGFTFGVYAMGWYRQAPGKERELVAAISSTGGSTYYADSVKGRFRISRDNAKNTVYLQMKSLKPEDTAVYYCAADPYPEYIRYLPGVVYWGQGTQVTVSS	low polyreactivity
QVQLVESGGGLVQEGGSLRLSCAASGRIFQWNAMGWYRQAPGKERELVATISSRGGSTYYADSVKGRFTISRDNAKNTVYLQMNSLKPEDTAVYYCAARYYAKYRSYDYWGQGTQVTVSS	high polyreactivity
QVQLVDSAAALVQAGGSQRLTCAASGLIFYYSVMGSYRQAPGKERELVARISTSGGSTYYADSVKGRFTISRDNAKNTVYIQMNSLKPEDTAVYYCAARGYRQYGWDCYCGQGTQVTVSS	low polyreactivity
QVQLVESGGGLVQAGGSLRLSCAASGSISYVYAMGWYRQAPGKERELFAAISYSDGSTYYADSVKGRFTISRDNAKNTVYLQMISLKPEDTAVYYCAADAVYPFPYYWEYYYWGQGTQVTVSS	high polyreactivity
QVQLVESGGGLVQAGGSLRLSCAASGSTLVSNAMGWYRQAPGKERELVASISYSATSTYYADSVKGRFTISRDNAKNTVYLQMNSLKPEDTAVYYCAAKTFRSRYYYWGQGTQVTVSS	high polyreactivity
QVQLVESGGGLVQAGGSLRLSCAASGSIFQDYTMGWYRQAPGKDRELVAAITDNGGSTYYADSVKGRFTISRDNAKNTVYLQMNSLKPEDTAVYYCAKDWDYSAPGYYLYGYWGQGTQVTVSS	low polyreactivity
QDQLVESRGGLVQAGRSLRISCAASGFIFYNYGMGWYRQAPGKEREFVAAITKRGGRTYYADSVKGRFTISRDYAKNTVYLQMTSLKPEDTAVYYCNKAIRQDRWVQEEDYWGQGTQVTVSS	high polyreactivity
QVQLVESGGGLVHAGGSLRLSCAASGGIFSWNTMGWYRQAPGKERELVAAINWSSGRTYYADSVKGRFTISRDNAKYTVYLQMNSLKPEDTAVYYCAAKYYGSRKYDYWGQGTQVTVSS	high polyreactivity
QVQLVVSRGGLVQAGGSLRLSCAASGSTFYYNAMGWYRQAPGKERELVAAISRSGGRTYYADSVKGRFTISRDNAKNTVYLQMNSLKPEDTAVYYCAAEYFDWWVTYDYWGQGTQVTVSS	high polyreactivity
QVQLVESGGGLVQAGGSLRLSCAASGSIFYRNAMGWYRQAPGKERELVAAISASGGSTYYADSVKGRFTISRDNAKNTVYLQMNSLKPEDTAVYYCAASRYYSRYDYWGQGTQVTVSS	high polyreactivity
QVQLVESGGGLVQAGGSLRLSCAASGSILDSNAMGWYRQAPGKERELVAAITSGGSTYYADSVKGRFTISRDNAKNTVYLQMNSLKPEDTAVYFCAAAFLGYGAVQPSYEGGYWGQGTQVTVSS	low polyreactivity
QVQLVESGGGLVQAGGSLRLSCAASGSTFLLYAMGWSRQAPGKERELVASISGDGSTNYADSVKGRFTISRDNAKNTVYLQMNSLKPEDTAVYYCARDTVHRLRISSVISNYWGQGTQVTVSS	low polyreactivity
QVQLVESGGGLVQAGGSLRLSCAASGSTFPIYAMGWYRQAPGKERELVAAITRSGGSTNYADSVKGRFTISRDNAKNTVYLQMNSLKPEDTAVYYCNRTRYRSFHYDYWGQGTQVTVSS	high polyreactivity
QVQLVESGGGLVQAGGSLRLSCATSGGIFDSYAMVWYRQAPGKERELVASISWSGGSTYYADSVKGRFTISRDNEKNTVYLQMKSLKPEVTAVYYCAADRPYAGRFWKGYHSALYDYWGQGTQVTVSS	low polyreactivity
HVQLQESGGGLVQAGGSLRLSCAASGNISYSRNMGWYRQAPGKERELVAAIDRGAITYYADSVKGRFTISRDNAKNTVYLQIYSLKPEDTAVYYCAAEYHDRWDHRYWGQGTQVTVSS	high polyreactivity
QVQLVESGGGLVQAGGSLRLSCAASGRTFSGYAMGWYRQAPGTERELVAAIDRGDGTNYADSVKGRFTISRDNAKNTVYLQMNSLKPEDTAVYYCAADYSYGSTSHTYTGFDYWGQGTQVTVSS	low polyreactivity
QVQLVESGGGLVQAGGSLRLSCAASRSTFYIYVMGWYRQAPGKERELVAAISWSGGSTYYTDSVKGRFTISRDNAKNTVYLQMNSLNPEDTAVYYCNADAHWSVWSYIIDYDYWGEGTQVTVSS	low polyreactivity
QVQLVESGGGLVQAGGSLRLSCAASGSTIRYNAMGWYRQAPGKERELVAAISRSGGSTYYADSVKGRFTISRDNAKNTVYLQRTSLKTEDTAVYYCAADRGARGDYWGQGTQVTVSS	high polyreactivity
HVLLVESGGGLVQAGGSLLLSCAASGSPFYTNAMVGFRKAPGKEREVVASITDGGDSTQYADSVKGRFTISRDYAKNTVYLQMNSLKPEDTAVYYCAVDYHYFQEYDTWGQGTQVTVSS	low polyreactivity
QVQLVESGGGLVQAGGSLRLSCAASGLIITAYAMGWYRQAPGKERELVAAITGSGGRTYYADSVKGRFTISRDNAKNTVYLQMNSLKPEDTAVYYCAADFPARGSSTSDYWGQGTQVTVSS	high polyreactivity
QVQLVESGGGLVQAGGSLRLSCAASGRNFPAYAMGWYRQAPGKERELVASIRRGGITYADSVKGRFTISRDNAKNTVYLQMNRLKPEDSSGYFCNADFRGWGYHMDYWGQGTQVTVSS	low polyreactivity

Sequence	polyreactivity (PSR sort gate)
QVQIVESGGGLVQAGASLRLSCAASGLIFPQKVMGWYIQAPGNERVLVAAISSGTITNYADSVKGRFTISRDNAKNSVYLQMNSLKPEDTADYFCAAEEDKKTFDYWGQGTQVTVSS	low polyreactivity
QVQLVESGGVLVQAGGSLRLSCAASGIIFVYNPMGWYRPAPGKERELVAGISWNGVSTYYADSVKWRFTISRDYAKYTVYLQMNSLKPEDTAVYYCAASLWVYVGQARYLWYDYWGQGTQVTVSS	low polyreactivity
QVQLVESGGGLVQAGGSLRLSCAASGRIFVGNAMGWYRQAPGKERELVAAITRSGSRTYYADSVKGRFTISRDNAKNTVYLQMISLKPEDTAVYYCNAPIRTWPGYDYWGQGTQVTVSS	high polyreactivity
QVQLEESGGGLVQAGGSLRLSCAASGIIFILYTMGWYRQAPGKERELVATISSGGGSTFYADSVKGRFTISRDNAKNTVYLQMNSLKPEDTAVYYCAAEQLYYGERYYIWGYYYWGQGTQVTVSS	low polyreactivity
QVQLVESGGGLVQAGGSLRLSCAASGFIFSHNAMGWYRQAPGKERELVAAISDGGGRTYYADSVKGRFTISRDNAKNTVYLQMNSLKPEDTEVYYCAVLWPYYERYYYWGQGTQVTVSS	high polyreactivity
QVQLVESGGGLVQAGGSLRLSCAASGITFLGYVMGWYRQAPGKEREFVADITESGGRTYYADSVKGRFTISRDNAKNTVYLQMNSLKPEDTAVYYCAAELSYWGYYYSFDYWGQGTQVTVSS	low polyreactivity
QVQLVESGGGLVQAGGSLRLSCAASGRTFQTNDMGLYRKAPGKERELVAAISRRGGSTYYADSVKGRFTISRDNAKNTVYLQMNSLKPEDTAVYYCAATRLSRYDYWGQGTQVTVSS	low polyreactivity
QVQLVESGGGLVQAGGSLRLSSAASGRIFYQYAMGWYRQAPGKERELVASISRSGTRTYYADSVKGRFTISRDNAKNTVYLQMISLKPEDTAVYYCAARGRASVERRGGYYYWGQGTQVTVSS	high polyreactivity
QDQLVESGGGLVQAGGSLRLSCAASGYTFRYNAMGWYIQATGKERELVATITRGGSTNYADSVKGRFTISRDNAKNTVYLQMNSLKPEDTAVYYCNKEAAPLAFVPSYYGRDYWGQGTEVTVSS	low polyreactivity
QVQLQESGGGLVQAGGSLRLSCAAIGTIFASQHMGWYRQAPGKERELVASIAKGGNTYYADSVKGRFTISRGNAKNTEYLQMNSLKPEDTAVYYCAAEIDLPYYYGSADDDYWGQGTQVTVSS	high polyreactivity
QVQLVESGGGLVQAGGSLRLSCAASGSTFTKYSMGWYRQAPGKERELVAAITGSGGRTYYADSEKGRFTISRDNAKNTVYLQMNSLKPEDTAVYYCAAEKAAGWYSGYDYWGQGTQVTVSS	high polyreactivity
QVQLVESGGGLVQAGGSLRLSCAASGRIFKYNAMGWYRQAPGKERELVAAISWTGVSTHYADSVKGRFTISRDNAKNTVYLQMNSLKPEDTAVYYCAARVGRGVYYHWRDYWGQGTQVTVSS	low polyreactivity
QVQLVESGGGLVQAGGSLRLSCAASGFIFHLYGMGWYRQAPGKERELVAAISSGGRTYYADSVKGRFTISRDNAKNTVYLQMNSLKPEDTAVYYCAVYVAYLYSYYYWGQGTQVTVSS	low polyreactivity
QVQLVESGGGLVQAGGSLRLSCAASGSTFGPYTMGWYRQAAGKERELVAAITGGGDSTYYADSVKGRFTISRDNAKNTVYLQMNSLKPEDTAVYYCAAKKPTTRMGYWGQGTQVTVSS	low polyreactivity
HVQLVESGGGLVQAGGSLRLSCAASGGTFGRYARGWYRQAPGKERELVAAISSGGSTNYADSVKGRFTISRDNAKYTVYLLMNSLKPEDTAVYYCAADGPSGVRQYDYWGQGTQVTVSS	low polyreactivity
QVQLVESGGGLVQAGGSLRLSCDASGFTFYYYAMGWYRPAPGKERELVAAISSSGSSTYYADSVKGRFTISRDNAKNTVYLQMNSLKPEDTAVYYCNARRYEYLWGDYWGQGTQVTVSS	high polyreactivity
QVQLVESGGGLVQAGGSLRLSCAASGSTFQLYAMGWDRQAPGKERELVAAITSSAGRTYYADSVKGRFTISRDNAKNTVYLQMNSLKPEDTAVYYCAKDGSFTFWGQGTQVTVSS	low polyreactivity
QVQLVESGGGLVQAGGSLRLSCAASGRILYKYSMGWYRQAPGKERELVAAINRSGGRTYYADSVKGRFTISRDNAKNTVYIQMNSLKPEDTAVYYCAARNPTSYGQFDYLGQGTQVTVSS	high polyreactivity
QVQLVESGGGLVPAGGSLRLSCAASGRIFRGYAMGWYRQAHGKEREFVAAITKNGGTTYYADSVKGRFTISRDNAKNTVYLQMNSLKPEDTAVYYCNKDGYPWPPNLDYWGQGTQVTVSS	low polyreactivity
QVQLVESGGGLVQAGGSLRLSCASSGSIFSKYAMGWYRQAPGKERELVAAITLNGGSTYYADSVKGRFTISRDNAKNTVYLQMNSLKPEDTAVYYCAKSDRPWWGYYYSWGQGSQVTVSS	low polyreactivity
QVQIVESGGGLVQAGGSLRLSCAASGSIFWPYTMGWYRQAPGKERELVAAISYSGGRTYYADSVKGRFTISRDNAKNTVYLQMNRLKPEDTAVYYCAAGTYSRGSREDYWGQGTQVTVSS	high polyreactivity
